# Experimental data taken from patent US20090098142A1 (published 2009).
# T1: cynomolgus monkey IL-13 (NHP IL-13) (cynomolgus monkey, UniProt Q5I6E4 21-132 (Macaca thibetana entry))
# T1 construct: Also used here for the IL-13 found in cynomolgus monkey serum; also called non-human primate IL-13; cynomolgus IL-13
# T1 chain: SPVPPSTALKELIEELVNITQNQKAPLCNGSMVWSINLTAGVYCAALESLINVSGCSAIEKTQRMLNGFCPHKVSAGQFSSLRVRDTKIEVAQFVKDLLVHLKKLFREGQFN
# T2: FLAG-tagged NHP IL-13 (cynomolgus monkey, UniProt Q5I6E4 21-132 (Macaca thibetana entry))
# T2 construct: also called NHP IL-13-FLAG; FLAG NHP IL-13; not shown: FLAG tag
# T2 chain: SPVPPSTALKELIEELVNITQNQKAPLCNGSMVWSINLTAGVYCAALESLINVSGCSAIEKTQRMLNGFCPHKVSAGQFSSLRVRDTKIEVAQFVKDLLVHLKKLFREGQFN
# Experiments:
# native human IL-13 [1] = biological target: T3, native human IL-13 (human, UniProt P35225 34-146); assay: cell-based or functional assay
# T3 sequence (P35225 other isoform, or with tags, fused parts or gaps): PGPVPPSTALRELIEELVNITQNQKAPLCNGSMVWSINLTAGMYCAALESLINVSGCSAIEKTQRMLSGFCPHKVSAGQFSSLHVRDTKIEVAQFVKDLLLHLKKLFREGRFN
# [2] = biological target: T1, cynomolgus monkey IL-13 (NHP IL-13); assay: sandwich ELISA, capture antibody
# Description: FIG. 20 is a series of bar graphs depicting the increases in serum IL-13 levels in individual cynomolgus monkeys treated with humanized MJ2-7 (hMJ2-7v2-11). The label in each panel (e.g., 120-452) corresponds to the monkey identification number. The “pre” sample was collected prior to administration of the antibody. The time “0” was collected 24-hours post-antibody administration, but prior to Ascaris challenge. The remaining time points were post-Ascaris challenge. The assays used to detect IL-13 levels are able to detect IL-13 in the presence of hMJ2-7v2-11 or hmAb13.2v2 antibodies. More specifically, ELISA plates (MaxiSorp; Nunc, Rochester, N.Y.), were coated overnight at 4° C. with 0.5 ug/ml mAb13.2 in PBS. Plates were washed in PBS containing 0.05% Tween-20 (PBS-Tween). NHP IL-13 standards, or serum dilutions from cynomolgus monkeys, were added and incubated for 2 hours at room temperature. Plates were washed, and 0.3 ug/ml biotinylated MJ1-64 (referred to herein as C65 antibody) was added in PBS-Tween. Plates were incubated 2 hours, room temperature, washed, and binding detected using HRP-streptavidin (Southern Biotechnology Associates) and Sure Blue substrate (Kirkegaard and Perry Labs). For detection of IL-13 in the presence of mAb13.2, the same protocol was followed, excepts that ELISA plates were coated with 0.5 ug/ml MJ2-7.
# [3] = biological target: T4, NHP-IL-13 in a complex with immobilized sIL-13Rα2-Fc (cynomolgus monkey; human, UniProt Q14627 27-343, limits assumed); assay: SPR (BIACORE), sIL-13Rα2-Fc amine-coupled to a CM5 chip, NHP-IL-13 injected, then antibody
# T4 construct: not shown: human IgG1 Fc tail
# Description: sIL-13Rα2-Fc was directly coated onto a CM5 chip by standard amine coupling. NHP-IL-13 at 100 nM concentration was injected, and its binding to the immobilized IL-13Rα2-Fc was detected by BIACORE™. An additional injection of 100 nM of anti IL-13 antibodies was added, and changes in binding were monitored.
# [4] = biological target: T1, cynomolgus monkey IL-13 (NHP IL-13); assay: cell-based or functional assay
# native human IL-13 [5] = biological target: T3, native human IL-13; assay: cell-based or functional assay; remark: listed apart in the source
# FLAG-tagged NHP IL-13 = biological target: T2, FLAG-tagged NHP IL-13; assay: competition ELISA against biotinylated mouse MJ 2-7
# Description: The ability of fully humanized MJ 2-7 mAb (V1, V2 v2) to compete with biotinylated mouse MJ 2-7 Ab for binding to NHP IL-13-FLAG was evaluated by ELISA. The microtiter plates (Costar) were coated with 1 μg/ml of anti-FLAG monoclonal antibody M2 (Sigma). The FLAG NHP IL-13 protein at concentration of 10 ng/ml was mixed with 10 ng/ml of biotin labeled mouse MJ 2-7 antibody and various concentrations of unlabeled mouse and humanized MJ 2-7 antibody. The mixture was incubated for 2 hours at room temperature and then added to the anti-FLAG antibody-coated plate. Binding of FLAG NHP-IL-13/bioMJ2-7 Ab complexes was detected with streptavidin-HRP and 3,3′,5,5′-tetramethylbenzidine (TMB). […] BIACORE™ analysis also confirmed that NHP IL-13 had rapid binding to and slow dissociation to immobilized h1uMJ 2-7 v2.11.
# [6] = biological target: T1, cynomolgus monkey IL-13 (NHP IL-13); assay: SPR (BIACORE), Kd=kd/ka from the kinetic rate constants
# Description: (§1) For kinetic analysis, the monoclonal antibody hMJ2-7 V2-11 was captured onto the anti IgG antibody surface by injecting 40 μl of a 1 μg/ml solution. The net difference between the baseline and the point approximately 30 seconds after completion of injection was taken to represent the amount of target bound. Solutions of NHP-IL-13 at 600, 200, 66.6, 22.2, 7.4, 2.5, 0.8, 0.27, 0.09 and 0 nM concentrations were injected in triplicate at a flow rate of […] for 2 minutes, and the amount of bound material as a function of time was recorded (FIG. 8). The dissociation phase was monitored in HBS/EP buffer (10 mM HEPES, pH 7.4, containing 150 mM NaCl, 3 mM EDTA and 0.005% (v/v) Surfactant P20) for 5 minutes at the same flow rate followed by two 5 μl injections of glycine, pH 1.5, to regenerate a fully active capturing surface. All kinetic experiments were done at 22.5° C. in HBS/EP buffer. Blank and buffer effects were subtracted for each sensorgram using double referencing.
# [7] = biological target: T1, cynomolgus monkey IL-13 (NHP IL-13); assay: SPR (BIACORE), antibody captured on goat anti-human IgG Fc, NHP-IL-13 at 0.09-600 nM injected, 1:1 model, 22.5 C
# Description: as §1
binder,measurement,setting,value
"sIL-13Rα2-Fc (soluble human IL-13 receptor alpha2 with a human IgG1 Fc tail) (Fc fusion, UniProt Q14627 27-343, looked up, not shown: a dimerising Fc or GST) DTEIKVNPPQDFEIVDPGYLGYLYLQWQPPLSLDHFKECTVEYELKYRNIGSETWKTIITKNLHYKDGFDLNKGIEAKIHTLLPWQCTNGSEVQSSWAETTYWISPQGIPETKVQDMDCVYYNWQYLLCSWKPGIGVLLDTNYNLFYWYEGLDHALQCVDYIKADGQNIGCRFPYLEASDYKDFYICVNGSSENKPIRSSYFTFQLQNIVKPLPPVYLTFTRESSCEIKLKWSIPLGPIPARCFDYEIEIREDDTTLVTATVENETYTLKTTNETRQLCFVVRSKVNIYCSDDGIWSEWSDKQCWEGEDLSKKTLLR","STAT6 phosphorylation assay in HT-29 cells, 0.3 ng/ml native human IL-13, IC50",native human IL-13 [1],0.33 nM
"monoclonal antibody 13.2 (mAb13.2) (antibody, mouse IgG1, V domains shown) VH: EVKLVESGGGLVKPGGSLKLSCAASGFTFISYAMSWVRQTPEKRLEWVASISSGGNTYYPDSVKGRFTISRDNARNILYLQMSSLRSEDTAMYYCARLDGYYFGFAYWGQGTTVTVSS VL: DIVLTQSPASLAVSLGQRATISCKASESVDNYGKSLMHWYQQKPGQSPKLLIYRASNLESGIPARFSGSGSRTDFTLTINPVEADDVATYYCQQSNEDPWTFGGGTKLEIK",binding result,[2],binds
"mouse monoclonal antibody MJ 2-7 (antibody, mouse IgG1, V domains shown, also called mAb7.1.1; murine MJ2-7) VH: EVQLQQSGAELVKPGASVKLSCTGSGFNIKDTYIHWVKQRPEQGLEWIGRIDPANDNIKYDPKFQGKATITADTSSNTAYLQLNSLTSEDTAVYYCARSEENWYDFFDYWGQGTTLTVSS VL: DVLMTQTPLSLPVSLGDQASISCRSSQSIVHSNGNTYLEWYLQKPGQSPKLLIYKVSNRFSGVPDRFSGSGSGTDFTLKISRVEAEDLGVYYCFQGSHIPYTFGGGTKLEIK",binding result,[3],no binding (tested: 100 nM)
same,"STAT6 phosphorylation assay in HT-29 cells, 0.3 ng/ml native human IL-13, IC50",native human IL-13 [1],0.48 nM
same,"STAT6 phosphorylation assay, native human IL-13 at 1 ng/ml, IC50",native human IL-13 [1],~0.293 nM
same,"tenascin production assay in BEAS-2B cells, 3 ng/ml native human IL-13, IC50",native human IL-13 [1],~0.1 nM
same,"CD23 expression assay, non-human primate IL-13 at 1 ng/ml, IC50",[4],~0.242 nM
"humanized MJ 2-7 V2.4 (VH V2.4 / VL V2) (antibody, V domains shown) VH: EVQLVESGGGLVQPGGSLRLSCAASGFNIKDTYIHWVRQAPGKGLEWVGRIDPANDNIKYDPKFQGRFTISRDNAKNSLYLQMNSLRAEDTAVYYCARSEENWYDFFDYWGQGTLVTVSS VL: DIQMTQSPSSLSASVGDRVTITCRSSQSIVHSNGNTYLEWYQQKPGKAPKLLIYKVSNRFSGVPSRFSGSGSGTDFTLTISSLQPEDFATYYCFQGSHIPYTFGGGTKVEIKR","Native hIL-13 STAT6 assay IC 50, nM",native human IL-13 [5],17.5 nM
"humanized MJ 2-7 V2.1 (VH V2.1 / VL V2) (antibody, V domains shown) VH: EVQLVESGGGLVQPGGSLRLSCAASGFNIKDTYIHWVRQAPGKGLEWIGRIDPANDNIKYDPKFQGRFTISRDNAKNSLYLQMNSLRAEDTAVYYCARSEENWYDFFDYWGQGTLVTVSS VL: DIQMTQSPSSLSASVGDRVTITCRSSQSIVHSNGNTYLEWYQQKPGKAPKLLIYKVSNRFSGVPSRFSGSGSGTDFTLTISSLQPEDFATYYCFQGSHIPYTFGGGTKVEIKR","Native hIL-13 STAT6 assay IC 50, nM",native human IL-13 [5],2.8 nM
"humanized MJ 2-7 V2.5 (VH V2.5 / VL V2) (antibody, V domains shown) VH: EVQLVESGGGLVQPGGSLRLSCAASGFNIKDTYIHWVRQAPGKGLEWVARIDPANDNIKYDPKFQGKATISADNAKNSLYLQMNSLRAEDTAVYYCARSEENWYDFFDYWGQGTLVTVSS VL: DIQMTQSPSSLSASVGDRVTITCRSSQSIVHSNGNTYLEWYQQKPGKAPKLLIYKVSNRFSGVPSRFSGSGSGTDFTLTISSLQPEDFATYYCFQGSHIPYTFGGGTKVEIKR","Native hIL-13 STAT6 assay IC 50, nM",native human IL-13 [5],1.75 nM
"humanized MJ 2-7 V2.2 (VH V2.2 / VL V2) (antibody, V domains shown) VH: EVQLVESGGGLVQPGGSLRLSCAASGFNIKDTYIHWVRQAPGKGLEWVARIDPANDNIKYDPKFQGKATISRDNAKNSLYLQMNSLRAEDTAVYYCARSEENWYDFFDYWGQGTLVTVSS VL: DIQMTQSPSSLSASVGDRVTITCRSSQSIVHSNGNTYLEWYQQKPGKAPKLLIYKVSNRFSGVPSRFSGSGSGTDFTLTISSLQPEDFATYYCFQGSHIPYTFGGGTKVEIKR","Native hIL-13 STAT6 assay IC 50, nM",native human IL-13 [5],> 100 nM
"humanized MJ 2-7 V2 (CDR grafted; VH V2 / VL V2) (antibody, human IgG1, V domains shown, Expressed in COS cells with human IgG1 (IgG1mut) and human kappa constant regions; also called hMJ2-7 V2; huMJ 2-7 V2) VH: EVQLVESGGGLVQPGGSLRLSCAASGFNIKDTYIHWVRQAPGKGLEWVARIDPANDNIKYDPKFQGRFTISRDNAKNSLYLQMNSLRAEDTAVYYCARSEENWYDFFDYWGQGTLVTVSS VL: DIQMTQSPSSLSASVGDRVTITCRSSQSIVHSNGNTYLEWYQQKPGKAPKLLIYKVSNRFSGVPSRFSGSGSGTDFTLTISSLQPEDFATYYCFQGSHIPYTFGGGTKVEIKR",binding result,FLAG-tagged NHP IL-13,binds
same,"Native hIL-13 STAT6 assay IC 50, nM",native human IL-13 [5],> 100 nM
"humanized MJ 2-7 V2.11 IgG1 with a mutated CH2 domain (antibody, V domains shown, VH V2.11 (back mutations V48I); A49G; R72A; L79A; human IgG1 with mutated CH2 and human kappa; also called hMJ2-7 V2-11; huMJ 2-7 V2.11) VH: EVQLVESGGGLVQPGGSLRLSCAASGFNIKDTYIHWVRQAPGKGLEWIGRIDPANDNIKYDPKFQGRFTISADNAKNSAYLQMNSLRAEDTAVYYCARSEENWYDFFDYWGQGTLVTVSS VL: DIQMTQSPSSLSASVGDRVTITCRSSQSIVHSNGNTYLEWYQQKPGKAPKLLIYKVSNRFSGVPSRFSGSGSGTDFTLTISSLQPEDFATYYCFQGSHIPYTFGGGTKVEIKR","STAT6 phosphorylation assay in HT-29 cells, 0.3 ng/ml native human IL-13, IC50",native human IL-13 [1],0.52 nM
same,Kd,[6],0.043 nM
same,koff,[7],0.000889 s⁻¹
same,kon,[7],2.05e+07 M⁻¹ s⁻¹
"humanized MJ 2-7 V2.7 (VH V2.7 / VL V2) (antibody, V domains shown) VH: EVQLVESGGGLVQPGGSLRLSCAASGFNIKDTYIHWVRQAPGKGLEWVGRIDPANDNIKYDPKFQGRFTISADNAKNSLYLQMNSLRAEDTAVYYCARSEENWYDFFDYWGQGTLVTVSS VL: DIQMTQSPSSLSASVGDRVTITCRSSQSIVHSNGNTYLEWYQQKPGKAPKLLIYKVSNRFSGVPSRFSGSGSGTDFTLTISSLQPEDFATYYCFQGSHIPYTFGGGTKVEIKR","Native hIL-13 STAT6 assay IC 50, nM",native human IL-13 [5],1.7 nM
"mouse monoclonal antibody C65 (antibody, V domains shown) VH: QVQLKESGPGLVAPSQSLSITCTVSGFSLTGYGVNWVRQPPGKGLEWLGIIWGDGSTDYNSALKSRLIINKDNSKSQVFLKMNSLQTDDTARYFCARDKTFYYDGFYRGRMDYWGQGTSVTVSS VL: DVQMIQSPSSLSASLGDIVTMTCQASQGTSINLNWFQQKPGKAPKLLIFGASNLEDGVPSRFSGSRYGTNFTLTISSLEDEDMATYFCLQHSYLPWTFGGGTKLEIK","fold decrease in STAT6 phosphorylation assay in HT-29 cells, 0.3 ng/ml native human IL-13; activity against that of MJ2-7",native human IL-13 [1],~20 fold
same,"fold decrease in monocyte CD23 expression assay, 3 ng/ml NHP IL-13; activity against that of MJ2-7 and sIL-13Rα2-Fc",[4],~20 fold
